Format in all cases: biochemical, B. amyloliquefaciens
Substrate in series [1]: C[C@H](NC(=O)CCC(=O)O)C(=O)N[C@@H](C)C(=O)N1CCC[C@H]1C(=O)N[C@@H](CCC(=O)O)C(=O)Nc1ccc([N+](=O)[O-])cc1
The series can be described thus: Kinetics of p-nitroanilide substrate hydrolysis, K166. The source says:
(§1) Wild-type subtilisin was purified from B. subtilis culture supernatants expressing the B. amyloliquefaciens subtilisin gene (Wells, J.A., et al. (1983) Nucleic Acids Res. 11, 7911-7925) as previously described (Estell, D.A., et al. (1985) J. Biol. Chem. 260, 6518-6521). Details of the synthesis of tetrapeptide substrates having the form succinyl-L-AlaL-AlaL-ProL-[X]-p-nitroanilide (where X is the P1 amino acid) are described by DelMar, E.G., et al. (1979) Anal. Biochem. 99, 316-320. Kinetic parameters, Km(M) and kcat-(s-^1) were measured using a modified progress curve analysis (Estell, D.A., et al. (1985) J. Biol. Chem. 260, 6518-6521). Briefly, plots of rate versus product concentration were fit to the differential form of the rate equation using a non-linear regression algorithm. Errors in kcat and Km for all values reported are less than five percent. The various substrates in Table VIII are ranged in order of decreasing hydrophobicity. Nozaki, Y. (1971), J. Biol. Chem. 246, 2211-2217; Tanford C. (1978) Science 200, 1012).
(§2) The construction of subtilisin mutants containing the substitution of the ionic amino acids Asp, Asn, Gln, Lys and Ang are disclosed in EPO Publication No. 0130756. The present example describes the construction of the mutant subtilisin containing Glu at position 166 (E166) and presents substrate specificity data on these mutants. Further data on position 166 and 156 single and double mutants is presented infra.
(§3) Each of these mutants was analyzed with the tetrapeptide substrates, succinyl-L-AlaL-AlaProL-X-p-nitroanilide, where X was Phe, Ala and Glu.
(§4) K166 is a common replacement amino acid in the 156/166 mutants described herein. The replacement of Lys for GIy166 was achieved by using the synthetic DNA cassette at the top right of Figure 21 which contained the triplet AAA for NNN. This produced fragment 2 with Lys substituting for GIy166.
(§5) These mutants, the single mutant K166, and the S156 and Q156 mutants of Example 8 were analyzed for substitute specificity against synthetic polypeptides containing Phe or Glu as the P-1 substrate residue.

Substrate in series [2]: C[C@H](NC(=O)CCC(=O)O)C(=O)N[C@@H](C)C(=O)N1CCC[C@H]1C(=O)N[C@@H](Cc1ccccc1)C(=O)Nc1ccc([N+](=O)[O-])cc1
Described as above. The following applies: K166.
Source text: as §1, §2, §3, §4, §5

Substrate in series [3]: C[C@H](NC(=O)CCC(=O)O)C(=O)N[C@@H](C)C(=O)N1CCC[C@H]1C(=O)N[C@@H](CCCCN)C(=O)Nc1ccc([N+](=O)[O-])cc1
The series is described as above. The following applies: other: Table XIV, 156 Glu / 166 Lys; value in parentheses; synthetic substrate with label as P-1 amino acid.

Substrate in series [4]: C[C@H](NC(=O)CCC(=O)O)C(=O)N[C@@H](C)C(=O)N1CCC[C@H]1C(=O)N[C@@H](CCC(N)=O)C(=O)Nc1ccc([N+](=O)[O-])cc1
Described as above. The following applies: other: Table XIV, 156 Glu / 166 Lys; value in parentheses; synthetic substrate with label as P-1 amino acid.

Substrate in series [5]: CSCC[C@H](NC(=O)[C@@H]1CCCN1C(=O)[C@H](C)NC(=O)[C@H](C)NC(=O)CCC(=O)O)C(=O)Nc1ccc([N+](=O)[O-])cc1
The series is described as above. The following applies: other: Table XIV, 156 Glu / 166 Lys; value in parentheses; synthetic substrate with label as P-1 amino acid.

Substrate in series [6]: C[C@H](NC(=O)CCC(=O)O)C(=O)N[C@@H](C)C(=O)N1CCC[C@H]1C(=O)N[C@@H](CCCCN)C(=O)Nc1ccc([N+](=O)[O-])cc1
The series can be described thus: Kinetics of p-nitroanilide substrate hydrolysis, E166. The following applies: other: Table XIV, 156 Glu / 166 Glu; value in parentheses; synthetic substrate with label as P-1 amino acid.
Source text: as §1, §2
(§6) pΔ166, described in Example 3, was digested with Sacl and Xmal. The double strand DNA cassette (underlined and overlined) of line 4 in Figure 13 contained the triplet GAA for the codon 166 to encode the replacement of Glu for Gly166. This mutant plasmid designated […] was propagated in BG2036 as described. This mutant subtilisin, together with the other mutants containing ionic substituent amino acids at residue 166, were isolated as described and further analyzed for variations in substrate specificity.
as §3

Substrate in series [7]: C[C@H](NC(=O)CCC(=O)O)C(=O)N[C@@H](C)C(=O)N1CCC[C@H]1C(=O)N[C@@H](CCC(N)=O)C(=O)Nc1ccc([N+](=O)[O-])cc1
The description is as above. The following applies: other: Table XIV, 156 Glu / 166 Glu; value in parentheses; synthetic substrate with label as P-1 amino acid.
Source text: as §1, §2, §6, §3

Substrate in series [8]: CSCC[C@H](NC(=O)[C@@H]1CCCN1C(=O)[C@H](C)NC(=O)[C@H](C)NC(=O)CCC(=O)O)C(=O)Nc1ccc([N+](=O)[O-])cc1
The description is as above. The following applies: other: Table XIV, 156 Glu / 166 Glu; value in parentheses; synthetic substrate with label as P-1 amino acid.
Source text: as §1, §2, §6, §3

Setting [9] is: other: Table XIII, K166, synthetic substrate with label as P-1 residue.
The mark [10] stands for this setting: other: Table XIII, synthetic substrate with label as P-1 residue.

Positions count from the first letter of the chain named. In names and notes the source's numbering stands.

Two proteins from patent EP0251446B1, “Non-human Carbonyl hydrolase mutants, DNA sequences and vectors encoding same and hosts transformed with said vectors” (GENENCOR INTERNATIONAL, INC., priority 1986, dated 1988) can be followed below.

B1: B. amyloliquefaciens subtilisin variant K166 (Gly166 to Lys) (Bacillus amyloliquefaciens; G273K) (protein)
chain: AQSVPYGVSQIKAPALHSQGYTGSNVKVAVIDSGIDSSHPDLKVAGGASMVPSETNPFQDNNSHGTHVAGTVAALNNSIGVLGVAPSASLYAVKVLGADGSGQYSWIINGIEWAIANNMDVINMSLGGPSGSAALKAAVDKAVASGVVVVAAAGNEGTSGSSSTVKYPGKYPSVIAVGAVDSSNQRASFSSVGPELDVMAPGVSIQSTLPGNKYGAYNGTSMASPHVAGAAALILSKHPNWTNTQVRSSLENTTTKLGDSFYYGKGLINVQAAAQ
notes: at various amino acid residues within the mature form of the subtilisin molecule; made in house; host or cells: Bacillus subtilis BG2036
In general, Km refers to the concentration of substrate that gives half-maximal velocity. For orientation: kcat/Km means the second-order rate constant that governs catalysis at low substrate concentration. For the protein B1, the Km in series [1] (setting [9]) was 56 µM; in series [1] (other: Table XIV, 156 Glu / 166 Lys, value in parentheses, synthetic substrate with label as P-1 amino acid), 56.2 µM; in series [2] (setting [10]), 40 µM; in series [2] (other: Table XIX), 37 µM; in series [3], 1170 µM; in series [4], 132 µM. The Michaelis-Menten constant (Km) in series [5] stood at 35.5 µM. Moreover, the kcat in series [1] (setting [9]) is listed as 0.70 s-^1; in series [2] (setting [10]) it was 20.00 s-^1; in series [2] (other: Table XIX), 21 s-^1. For the same protein, the kcat/Km is 12000 M⁻¹ s⁻¹ in series [1] (setting [9]) and 520000 M⁻¹ s⁻¹ in series [2] (setting [10]).

B2: B. amyloliquefaciens subtilisin variant E166 (Gly166 to Glu) (Bacillus amyloliquefaciens; G273E) (protein)
chain: B1 chain with K166E
notes: as for B1
Take B2: the Km in series [6] stood at 204 µM; in series [7], 1230 µM; in series [8] it was 525 µM.
